Results reported in article PMC5758567.

Target: Rod photoreceptor cGMP phosphodiesterase 6 (PDE6) (bovine (endogenous in rod outer segments)) (UniProt P11541)

Sequence of Prenyl-binding protein (PrBP/δ) (Q95142 whole entry, stated change not applied): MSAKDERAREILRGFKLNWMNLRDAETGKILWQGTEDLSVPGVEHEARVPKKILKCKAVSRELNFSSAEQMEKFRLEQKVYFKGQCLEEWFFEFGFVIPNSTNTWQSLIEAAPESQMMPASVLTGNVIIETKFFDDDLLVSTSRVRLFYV

Substance “Prenyl-binding protein (PrBP/δ) (from UniProt Q95142 1-150) (natural protein)” has a Gα*-induced PDE6 activity (50 nM PDE6, 10 µM disc membranes, 1 µM Gα*) against PrBP/δ concentration; fit with two identical PrBP/δ binding sites on soluble PDE6 of 0.07 µM.
